Reference: patent publication US20030228306A1

Experiments:
[1] = molecular target: CC-chemokine receptor CCR5 (UniProt P51681); assay: cell-based or functional assay
[2] = molecular target: CC-chemokine receptor CCR5 (UniProt P51681); assay: flow cytometry on mitogen-stimulated PBMC, m.f.i.

Chain of UniProt P51681 (P51681 whole entry): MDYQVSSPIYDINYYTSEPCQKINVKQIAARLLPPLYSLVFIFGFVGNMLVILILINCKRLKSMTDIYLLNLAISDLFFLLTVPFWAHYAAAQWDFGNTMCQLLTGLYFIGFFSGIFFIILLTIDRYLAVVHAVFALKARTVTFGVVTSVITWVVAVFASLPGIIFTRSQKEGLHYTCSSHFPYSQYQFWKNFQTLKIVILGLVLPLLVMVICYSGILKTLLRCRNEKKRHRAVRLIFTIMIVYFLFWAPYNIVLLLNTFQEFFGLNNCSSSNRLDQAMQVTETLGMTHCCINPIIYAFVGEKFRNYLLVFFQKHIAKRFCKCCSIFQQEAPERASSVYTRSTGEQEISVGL

Row | Substance | IC50, inhibition of JR-FL entry (luciferase entry assay) [1] [µg/mL] | IC50, inhibition of fusion between PM1 cells and HeLa-EnvJR-FL+ cells (RET assay) [1] [µg/mL] | K (equal to the IC50 value), inhibition of cell-cell fusion, median effect fit (RET assay) [1] [µg/mL] | IC50 for calcium influx inhibition, ratio against 2D7 [1] [fold] | fold difference in m.f.i. against PA9 [2] [fold]
1 | anti-CCR5 mAb 2D7 (antibody) | 0.026 | 1.6 | 0.36 |  | 
2 | anti-CCR5 monoclonal antibody PA14 | 0.024 | 1.7 |  | 8 | 7
